Paper PMC11667970, “Mycobacterium tuberculosis Mce3R TetR-like Repressor Forms an Asymmetric Four-Helix Bundle and Binds a Nonpalindrome Sequence†” (ACS Chemical Biology, 2024)

Experiments:
Mce3R [1] = target: T1, Mce3R (Mycobacterium tuberculosis H37Rv, UniProt P95251 1-406); assay: EMSA; 10 nM DNA, 0-128 nM protein; details: protein: recombinant; tags: MBP-His6 N-terminal, removed with TEV; chain copies: 2; label: 5'-Cy3 (forward strand); blunt
T1 sequence: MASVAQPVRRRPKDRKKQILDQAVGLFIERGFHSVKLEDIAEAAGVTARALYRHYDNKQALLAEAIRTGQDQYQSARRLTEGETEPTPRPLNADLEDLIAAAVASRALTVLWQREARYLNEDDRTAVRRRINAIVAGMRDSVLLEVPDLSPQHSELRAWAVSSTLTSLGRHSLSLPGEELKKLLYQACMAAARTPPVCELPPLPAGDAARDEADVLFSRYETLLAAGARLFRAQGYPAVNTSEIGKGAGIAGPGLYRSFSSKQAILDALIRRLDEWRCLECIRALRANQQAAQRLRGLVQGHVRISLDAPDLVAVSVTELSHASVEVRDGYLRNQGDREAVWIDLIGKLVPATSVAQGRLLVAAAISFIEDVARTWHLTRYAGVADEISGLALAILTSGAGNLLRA

Mce3R [2] = target: T1, Mce3R; assay: EMSA; up to 128 nM Mce3R, 1 ug poly(dI-dC); details: protein: recombinant; tags: MBP-His6 N-terminal, removed with TEV; chain copies: 2; label: 5'-Cy3 (forward strand); blunt
SEC = target: the molecule itself; assay: SEC
Mce3R [3] = target: T1, Mce3R; assay: EMSA; details: protein: recombinant; tags: MBP-His6 N-terminal, removed with TEV; chain copies: 2; label: 5'-Cy3; blunt

B1: Probe A (dsDNA)
DNA 1: GCCCCGCGCTATAGGATACTAGCAAGATACATCATAGCCAATATATGCCAGTTTGCATTGCTATTTACCGATCAGTTGTCCAAGCAATCGCGTATTGGCTATGGACATCAGCGGTTCTGCCGC
DNA 2: GCGGCAGAACCGCTGATGTCCATAGCCAATACGCGATTGCTTGGACAACTGATCGGTAAATAGCAATGCAAACTGGCATATATTGGCTATGATGTATCTTGCTAGTATCCTATAGCGCGGGGC
Kd (Mce3R [1]): 2.4 ± 0.7 nM

B2: Probe A' (dsDNA)
DNA 1: CCAGTGCGACCTAACCAAGGACCTACAGATTCTGTCCGTGAGAGAATCGTGTTGGCCTCAGAAGACGGTCGCAAGTTCTCTTTATGACCTGCTAAACTTGAGCCTATATTAGTTATCGCACCT
DNA 2: AGGTGCGATAACTAATATAGGCTCAAGTTTAGCAGGTCATAAAGAGAACTTGCGACCGTCTTCTGAGGCCAACACGATTCTCTCACGGACAGAATCTGTAGGTCCTTGGTTAGGTCGCACTGG
binding result (Mce3R [2]): no binding

B3: Mce3R (Rv1963c), full-length TetR-like repressor of Mycobacterium tuberculosis (natural protein)
chain: MASVAQPVRRRPKDRKKQILDQAVGLFIERGFHSVKLEDIAEAAGVTARALYRHYDNKQALLAEAIRTGQDQYQSARRLTEGETEPTPRPLNADLEDLIAAAVASRALTVLWQREARYLNEDDRTAVRRRINAIVAGMRDSVLLEVPDLSPQHSELRAWAVSSTLTSLGRHSLSLPGEELKKLLYQACMAAARTPPVCELPPLPAGDAARDEADVLFSRYETLLAAGARLFRAQGYPAVNTSEIGKGAGIAGPGLYRSFSSKQAILDALIRRLDEWRCLECIRALRANQQAAQRLRGLVQGHVRISLDAPDLVAVSVTELSHASVEVRDGYLRNQGDREAVWIDLIGKLVPATSVAQGRLLVAAAISFIEDVARTWHLTRYAGVADEISGLALAILTSGAGNLLRA
notes: Mce3R (Rv1963c), Mycobacterium tuberculosis H37Rv, full length; calculated MW 44.3 kDa; also called M1M2 TFR; wild-type Mce3R; not shown: MBP, N-terminal, cleaved; His6, N-terminal, cleaved
stoichiometry N (SEC): 2

B4: Probe C (dsDNA)
DNA 1: TAGCCAATATATGCCAGTTTGCATTGCTATTTACCGATCAGTTGTCCAAGCAATCGCGTATTGGCTATGGACATCAGCGGTTCTGCCGC
DNA 2: GCGGCAGAACCGCTGATGTCCATAGCCAATACGCGATTGCTTGGACAACTGATCGGTAAATAGCAATGCAAACTGGCATATATTGGCTA
binding result (Mce3R [3]): binds

B5: Probe A* (dsDNA)
DNA 1: CTACAAGTGCTGGAGGTCAAATCCCGCATCAACATAGCCAATATATGCCAGTTTGCATTGCTATTTACCGATCAGTTGTCCAAGCAATCGCGTATTGGCTATGGACATCAGCGGTTCTGCCGC
DNA 2: GCGGCAGAACCGCTGATGTCCATAGCCAATACGCGATTGCTTGGACAACTGATCGGTAAATAGCAATGCAAACTGGCATATATTGGCTATGTTGATGCGGGATTTGACCTCCAGCACTTGTAG
Kd (Mce3R [1]): 59 ± 10 nM
